For orientation: koff means the first-order rate constant of dissociation. Read a high koff as a short-lived complex. As usually defined, the Kd is the concentration at which binding is half-saturated.

For one molecule, koff and Kd results are on record in publication PMC9173649 (2022).

Assay [1] addresses T1, C1q purified from human serum (human, UniProt P02745 23-245; P02746 28-253; P02747 29-245). Kind of assay: BLI; 2:1 heterogeneous ligand model, kd1 (first site).
Assay [2] concerns the target T1, C1q purified from human serum. In words: BLI; 2:1 heterogeneous ligand model, KD1 (first site).
For assay [3] the target is unchanged. Kind of assay: BLI; 2:1 heterogeneous ligand model, kd2 (second site). In general terms: BLI is a label-free optical method that tracks binding on a fibre tip over time.
The target is the same in assay [4]. In words: BLI; 2:1 heterogeneous ligand model, KD2 (second site).

T1 sequence (P02745 23-245, chain 1 of 3): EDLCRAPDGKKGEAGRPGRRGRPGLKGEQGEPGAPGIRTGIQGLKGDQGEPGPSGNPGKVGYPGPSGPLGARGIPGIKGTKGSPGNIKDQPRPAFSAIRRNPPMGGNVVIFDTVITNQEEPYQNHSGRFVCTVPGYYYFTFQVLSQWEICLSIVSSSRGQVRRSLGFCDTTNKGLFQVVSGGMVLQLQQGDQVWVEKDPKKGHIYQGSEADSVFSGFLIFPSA
T1 sequence (P02746 28-253, chain 2 of 3): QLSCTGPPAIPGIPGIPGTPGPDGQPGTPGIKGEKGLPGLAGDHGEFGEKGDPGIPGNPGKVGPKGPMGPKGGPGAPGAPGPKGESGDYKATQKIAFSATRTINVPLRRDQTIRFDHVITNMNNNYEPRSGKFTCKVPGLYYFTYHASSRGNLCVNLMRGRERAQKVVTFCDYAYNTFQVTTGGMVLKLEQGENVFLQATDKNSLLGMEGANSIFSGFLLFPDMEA
T1 sequence (P02747 29-245, chain 3 of 3): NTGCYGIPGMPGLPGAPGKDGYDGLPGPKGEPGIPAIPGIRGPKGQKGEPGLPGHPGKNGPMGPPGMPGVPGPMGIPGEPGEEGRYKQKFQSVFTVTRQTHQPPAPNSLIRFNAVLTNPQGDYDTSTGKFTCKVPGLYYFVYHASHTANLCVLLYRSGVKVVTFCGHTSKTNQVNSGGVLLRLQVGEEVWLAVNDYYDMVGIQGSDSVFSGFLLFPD

B1: C1r2C1s2 catalytic tetramer (complex)
chain 1: SIPIPQKLFGEVTSPLFPKPYPNNFETTTVITVPTGYRVKLVFQQFDLEPSEGCFYDYVKISADKKSLGRFCGQLGSPLGNPPGKKEFMSQGNKMLLTFHTDFSNEENGTIMFYKGFLAYYQAVDLDECASRSKSGEEDPQPQCQHLCHNYVGGYFCSCRPGYELQEDTHSCQAECSSELYTEASGYISSLEYPRSYPPDLRCNYSIRVERGLTLHLKFLEPFDIDDHQQVHCPYDQLQIYANGKNIGEFCGKQRPPDLDTSSNAVDLLFFTDESGDSRGWKLRYTTEIIKCPQPKTLDEFTIIQNLQPQYQFRDYFIATCKQGYQLIEGNQVLHSFTAVCQDDGTWHRAMPRCKIKDCGQPRNLPNGDFRYTTTMGVNTYKARIQYYCHEPYYKMQTRAGSRESEQGVYTCTAQGIWKNEQKGEKIPRCLPVCGKPVNPVEQRQRIIGGQKAKMGNFPWQVFTNIHGRGGGALLGDRWILTAAHTLYPKEHEAQSNASLDVFLGHTNVEELMKLGNHPIRRVSVHPDYRQDESYNFEGDIALLELENSVTLGPNLLPICLPDNDTFYDLGLMGYVSGFGVMEEKIAHDLRFVRLPVANPQACENWLRGKNRMDVFSQNMFCAGHPSLKQDACQGDSGGVFAVRDPNTDRWVATGIVSWGIGCSRGYGFYTKVLNYVDWIKKEMEEED
chain 2: EPTMYGEILSPNYPQAYPSEVEKSWDIEVPEGYGIHLYFTHLDIELSENCAYDSVQIISGDTEEGRLCGQRSSNNPHSPIVEEFQVPYNKLQVIFKSDFSNEERFTGFAAYYVATDINECTDFVDVPCSHFCNNFIGGYFCSCPPEYFLHDDMKNCGVNCSGDVFTALIGEIASPNYPKPYPENSRCEYQIRLEKGFQVVVTLRREDFDVEAADSAGNCLDSLVFVAGDRQFGPYCGHGFPGPLNIETKSNALDIIFQTDLTGQKKGWKLRYHGDPMPCPKEDTPNSVWEPAKAKYVFRDVVQITCLDGFEVVEGRVGATSFYSTCQSNGKWSNSKLKCQPVDCGIPESIENGKVEDPESTLFGSVIRYTCEEPYYYMENGGGGEYHCAGNGSWVNEVLGPELPKCVPVCGVPREPFEEKQRIIGGSDADIKNFPWQVFFDNPWAGGALINEYWVLTAAHVVEGNREPTMYVGSTSVQTSRLAKSKMLTPEHVFIHPGWKLLEVPEGRTNFDNDIALVRLKDPVKMGPTVSPICLPGTSSDYNLMDGDLGLISGWGRTEKRDRAVRLKAARLPVAPLRKCKEVKVEKPTADAEAYVFTPNMICAGGEKGMDSCKGDSGGAFAVQDPNDKTKFYAAGLVSWGPQCGTYGLYTRVKNYVDWIMKTMQENSTPRED
As for B1, the off-rate constant (koff) in assay [1] was 0.000402 s⁻¹; in assay [3] it was 0.00928 s⁻¹. In addition, the values for the Kd in assay [2] and in assay [4] were 10 nM and 4.33 nM, respectively.
